Assay results from US20140213513A1 (Sanofi, priority 2012, published 2014).
*1 amine or outer side, *2 acyl side, *3 side chain or, on linkers, in order; H or OH if unused. Where no end group is shown, it is not given here. Side-chain parts run from the residue outwards. [ ]: non-standard residue; d: D form. The star is where a group is joined. γGlu = O=C(O)[C@H](CCC(=O)[*:2])N[*:1]; Stearoyl = CCCCCCCCCCCCCCCCCC(=O)*; Palmitoyl = CCCCCCCCCCCCCCCC(=O)*; Aib = CC(C)(N)C(=O)O

T1: human GIP receptor (human, UniProt P48546 22-466)
T1 sequence (looked up): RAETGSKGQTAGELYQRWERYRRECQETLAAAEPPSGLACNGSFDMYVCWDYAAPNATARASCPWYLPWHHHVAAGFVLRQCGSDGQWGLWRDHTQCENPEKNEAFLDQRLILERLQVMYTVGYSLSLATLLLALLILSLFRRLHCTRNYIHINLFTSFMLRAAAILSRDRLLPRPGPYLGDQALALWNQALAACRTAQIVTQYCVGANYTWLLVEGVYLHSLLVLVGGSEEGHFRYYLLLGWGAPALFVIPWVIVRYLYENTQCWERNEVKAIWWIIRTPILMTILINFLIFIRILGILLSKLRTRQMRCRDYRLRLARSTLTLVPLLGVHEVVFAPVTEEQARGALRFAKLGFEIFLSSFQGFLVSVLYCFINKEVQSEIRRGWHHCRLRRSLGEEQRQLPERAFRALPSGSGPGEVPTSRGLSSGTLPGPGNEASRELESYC

B1: exendin-4 peptide analogue SEQ ID NO: 46 (peptide)
peptide: Y[Aib]QGTFTSDLSIQK([γGlu-Palmitoyl])EKRAVQLFIEWLKNGGPSSGAPPPS-NH2
modifications: N-terminus assumed
SMILES: CCCCCCCCCCCCCCCC(=O)N[C@@H](CCC(=O)NCCCC[C@H](NC(=O)[C@H](CCC(N)=O)NC(=O)[C@@H](NC(=O)[C@H](CO)NC(=O)[C@H](CC(C)C)NC(=O)[C@H](CC(=O)O)NC(=O)[C@H](CO)NC(=O)[C@@H](NC(=O)[C@H](Cc1ccccc1)NC(=O)[C@@H](NC(=O)CNC(=O)[C@H](CCC(N)=O)NC(=O)C(C)(C)NC(=O)[C@@H](N)Cc1ccc(O)cc1)[C@@H](C)O)[C@@H](C)O)[C@@H](C)CC)C(=O)N[C@@H](CCC(=O)O)C(=O)N[C@@H](CCCCN)C(=O)N[C@@H](CCCNC(=N)N)C(=O)N[C@@H](C)C(=O)N[C@H](C(=O)N[C@@H](CCC(N)=O)C(=O)N[C@@H](CC(C)C)C(=O)N[C@@H](Cc1ccccc1)C(=O)N[C@H](C(=O)N[C@@H](CCC(=O)O)C(=O)N[C@@H](Cc1c[nH]c2ccccc12)C(=O)N[C@@H](CC(C)C)C(=O)N[C@@H](CCCCN)C(=O)N[C@@H](CC(N)=O)C(=O)NCC(=O)NCC(=O)N1CCC[C@H]1C(=O)N[C@@H](CO)C(=O)N[C@@H](CO)C(=O)NCC(=O)N[C@@H](C)C(=O)N1CCC[C@H]1C(=O)N1CCC[C@H]1C(=O)N1CCC[C@H]1C(=O)N[C@@H](CO)C(N)=O)[C@@H](C)CC)C(C)C)C(=O)O
B2: exendin-4 peptide analogue SEQ ID NO: 45 (peptide)
peptide: Y[Aib]QGTFTSDLSIQK([γGlu-Palmitoyl])EKRAAQLFIEWLKNGGPSSGAPPPS-NH2
modifications: N-terminus assumed
SMILES: CCCCCCCCCCCCCCCC(=O)N[C@@H](CCC(=O)NCCCC[C@H](NC(=O)[C@H](CCC(N)=O)NC(=O)[C@@H](NC(=O)[C@H](CO)NC(=O)[C@H](CC(C)C)NC(=O)[C@H](CC(=O)O)NC(=O)[C@H](CO)NC(=O)[C@@H](NC(=O)[C@H](Cc1ccccc1)NC(=O)[C@@H](NC(=O)CNC(=O)[C@H](CCC(N)=O)NC(=O)C(C)(C)NC(=O)[C@@H](N)Cc1ccc(O)cc1)[C@@H](C)O)[C@@H](C)O)[C@@H](C)CC)C(=O)N[C@@H](CCC(=O)O)C(=O)N[C@@H](CCCCN)C(=O)N[C@@H](CCCNC(=N)N)C(=O)N[C@@H](C)C(=O)N[C@@H](C)C(=O)N[C@@H](CCC(N)=O)C(=O)N[C@@H](CC(C)C)C(=O)N[C@@H](Cc1ccccc1)C(=O)N[C@H](C(=O)N[C@@H](CCC(=O)O)C(=O)N[C@@H](Cc1c[nH]c2ccccc12)C(=O)N[C@@H](CC(C)C)C(=O)N[C@@H](CCCCN)C(=O)N[C@@H](CC(N)=O)C(=O)NCC(=O)NCC(=O)N1CCC[C@H]1C(=O)N[C@@H](CO)C(=O)N[C@@H](CO)C(=O)NCC(=O)N[C@@H](C)C(=O)N1CCC[C@H]1C(=O)N1CCC[C@H]1C(=O)N1CCC[C@H]1C(=O)N[C@@H](CO)C(N)=O)[C@@H](C)CC)C(=O)O
B3: exendin-4 peptide analogue SEQ ID NO: 44 (peptide)
peptide: Y[Aib]QGTFTSDLSIQK([γGlu-Palmitoyl])DKRAAQDFIEWLKKGGPSSGAPPPS-NH2
modifications: N-terminus assumed
SMILES: CCCCCCCCCCCCCCCC(=O)N[C@@H](CCC(=O)NCCCC[C@H](NC(=O)[C@H](CCC(N)=O)NC(=O)[C@@H](NC(=O)[C@H](CO)NC(=O)[C@H](CC(C)C)NC(=O)[C@H](CC(=O)O)NC(=O)[C@H](CO)NC(=O)[C@@H](NC(=O)[C@H](Cc1ccccc1)NC(=O)[C@@H](NC(=O)CNC(=O)[C@H](CCC(N)=O)NC(=O)C(C)(C)NC(=O)[C@@H](N)Cc1ccc(O)cc1)[C@@H](C)O)[C@@H](C)O)[C@@H](C)CC)C(=O)N[C@@H](CC(=O)O)C(=O)N[C@@H](CCCCN)C(=O)N[C@@H](CCCNC(=N)N)C(=O)N[C@@H](C)C(=O)N[C@@H](C)C(=O)N[C@@H](CCC(N)=O)C(=O)N[C@@H](CC(=O)O)C(=O)N[C@@H](Cc1ccccc1)C(=O)N[C@H](C(=O)N[C@@H](CCC(=O)O)C(=O)N[C@@H](Cc1c[nH]c2ccccc12)C(=O)N[C@@H](CC(C)C)C(=O)N[C@@H](CCCCN)C(=O)N[C@@H](CCCCN)C(=O)NCC(=O)NCC(=O)N1CCC[C@H]1C(=O)N[C@@H](CO)C(=O)N[C@@H](CO)C(=O)NCC(=O)N[C@@H](C)C(=O)N1CCC[C@H]1C(=O)N1CCC[C@H]1C(=O)N1CCC[C@H]1C(=O)N[C@@H](CO)C(N)=O)[C@@H](C)CC)C(=O)O
B4: exendin-4 peptide analogue SEQ ID NO: 9 (peptide)
peptide: Y[Aib]QGTFTSDLSIQK([γGlu-Palmitoyl])EK[Aib]AA[Aib]EFIEWLKNTGPSSGAPPPS-NH2
modifications: N-terminus assumed
SMILES: CCCCCCCCCCCCCCCC(=O)N[C@@H](CCC(=O)NCCCC[C@H](NC(=O)[C@H](CCC(N)=O)NC(=O)[C@@H](NC(=O)[C@H](CO)NC(=O)[C@H](CC(C)C)NC(=O)[C@H](CC(=O)O)NC(=O)[C@H](CO)NC(=O)[C@@H](NC(=O)[C@H](Cc1ccccc1)NC(=O)[C@@H](NC(=O)CNC(=O)[C@H](CCC(N)=O)NC(=O)C(C)(C)NC(=O)[C@@H](N)Cc1ccc(O)cc1)[C@@H](C)O)[C@@H](C)O)[C@@H](C)CC)C(=O)N[C@@H](CCC(=O)O)C(=O)N[C@@H](CCCCN)C(=O)NC(C)(C)C(=O)N[C@@H](C)C(=O)N[C@@H](C)C(=O)NC(C)(C)C(=O)N[C@@H](CCC(=O)O)C(=O)N[C@@H](Cc1ccccc1)C(=O)N[C@H](C(=O)N[C@@H](CCC(=O)O)C(=O)N[C@@H](Cc1c[nH]c2ccccc12)C(=O)N[C@@H](CC(C)C)C(=O)N[C@@H](CCCCN)C(=O)N[C@@H](CC(N)=O)C(=O)N[C@H](C(=O)NCC(=O)N1CCC[C@H]1C(=O)N[C@@H](CO)C(=O)N[C@@H](CO)C(=O)NCC(=O)N[C@@H](C)C(=O)N1CCC[C@H]1C(=O)N1CCC[C@H]1C(=O)N1CCC[C@H]1C(=O)N[C@@H](CO)C(N)=O)[C@@H](C)O)[C@@H](C)CC)C(=O)O
B5: exendin-4 peptide analogue SEQ ID NO: 42 (peptide)
peptide: Y[Aib]EGTFTSDLSIQK([γGlu-Stearoyl])ESKAAQEFIEWLKAGGPSSGAPPPS-NH2
modifications: N-terminus assumed
SMILES: CCCCCCCCCCCCCCCCCC(=O)N[C@@H](CCC(=O)NCCCC[C@H](NC(=O)[C@H](CCC(N)=O)NC(=O)[C@@H](NC(=O)[C@H](CO)NC(=O)[C@H](CC(C)C)NC(=O)[C@H](CC(=O)O)NC(=O)[C@H](CO)NC(=O)[C@@H](NC(=O)[C@H](Cc1ccccc1)NC(=O)[C@@H](NC(=O)CNC(=O)[C@H](CCC(=O)O)NC(=O)C(C)(C)NC(=O)[C@@H](N)Cc1ccc(O)cc1)[C@@H](C)O)[C@@H](C)O)[C@@H](C)CC)C(=O)N[C@@H](CCC(=O)O)C(=O)N[C@@H](CO)C(=O)N[C@@H](CCCCN)C(=O)N[C@@H](C)C(=O)N[C@@H](C)C(=O)N[C@@H](CCC(N)=O)C(=O)N[C@@H](CCC(=O)O)C(=O)N[C@@H](Cc1ccccc1)C(=O)N[C@H](C(=O)N[C@@H](CCC(=O)O)C(=O)N[C@@H](Cc1c[nH]c2ccccc12)C(=O)N[C@@H](CC(C)C)C(=O)N[C@@H](CCCCN)C(=O)N[C@@H](C)C(=O)NCC(=O)NCC(=O)N1CCC[C@H]1C(=O)N[C@@H](CO)C(=O)N[C@@H](CO)C(=O)NCC(=O)N[C@@H](C)C(=O)N1CCC[C@H]1C(=O)N1CCC[C@H]1C(=O)N1CCC[C@H]1C(=O)N[C@@H](CO)C(N)=O)[C@@H](C)CC)C(=O)O
B6: exendin-4 peptide analogue SEQ ID NO: 43 (peptide)
peptide: Y[Aib]QGTFTSDLSIQK([γGlu-Palmitoyl])DSRAAQDFIEWLKKGGPSSGAPPPS-NH2
modifications: N-terminus assumed
SMILES: CCCCCCCCCCCCCCCC(=O)N[C@@H](CCC(=O)NCCCC[C@H](NC(=O)[C@H](CCC(N)=O)NC(=O)[C@@H](NC(=O)[C@H](CO)NC(=O)[C@H](CC(C)C)NC(=O)[C@H](CC(=O)O)NC(=O)[C@H](CO)NC(=O)[C@@H](NC(=O)[C@H](Cc1ccccc1)NC(=O)[C@@H](NC(=O)CNC(=O)[C@H](CCC(N)=O)NC(=O)C(C)(C)NC(=O)[C@@H](N)Cc1ccc(O)cc1)[C@@H](C)O)[C@@H](C)O)[C@@H](C)CC)C(=O)N[C@@H](CC(=O)O)C(=O)N[C@@H](CO)C(=O)N[C@@H](CCCNC(=N)N)C(=O)N[C@@H](C)C(=O)N[C@@H](C)C(=O)N[C@@H](CCC(N)=O)C(=O)N[C@@H](CC(=O)O)C(=O)N[C@@H](Cc1ccccc1)C(=O)N[C@H](C(=O)N[C@@H](CCC(=O)O)C(=O)N[C@@H](Cc1c[nH]c2ccccc12)C(=O)N[C@@H](CC(C)C)C(=O)N[C@@H](CCCCN)C(=O)N[C@@H](CCCCN)C(=O)NCC(=O)NCC(=O)N1CCC[C@H]1C(=O)N[C@@H](CO)C(=O)N[C@@H](CO)C(=O)NCC(=O)N[C@@H](C)C(=O)N1CCC[C@H]1C(=O)N1CCC[C@H]1C(=O)N1CCC[C@H]1C(=O)N[C@@H](CO)C(N)=O)[C@@H](C)CC)C(=O)O

What was measured:
Experiment in all cases: cell-based or functional assay
[1] = molecular target: T1, human GIP receptor
[2] = molecular target: human GLP-1 receptor (human, UniProt P43220 24-463)
[3] = molecular target: human glucagon receptor (human, UniProt P47871 26-477)
human glucagon receptor, sequence (P47871 26-477): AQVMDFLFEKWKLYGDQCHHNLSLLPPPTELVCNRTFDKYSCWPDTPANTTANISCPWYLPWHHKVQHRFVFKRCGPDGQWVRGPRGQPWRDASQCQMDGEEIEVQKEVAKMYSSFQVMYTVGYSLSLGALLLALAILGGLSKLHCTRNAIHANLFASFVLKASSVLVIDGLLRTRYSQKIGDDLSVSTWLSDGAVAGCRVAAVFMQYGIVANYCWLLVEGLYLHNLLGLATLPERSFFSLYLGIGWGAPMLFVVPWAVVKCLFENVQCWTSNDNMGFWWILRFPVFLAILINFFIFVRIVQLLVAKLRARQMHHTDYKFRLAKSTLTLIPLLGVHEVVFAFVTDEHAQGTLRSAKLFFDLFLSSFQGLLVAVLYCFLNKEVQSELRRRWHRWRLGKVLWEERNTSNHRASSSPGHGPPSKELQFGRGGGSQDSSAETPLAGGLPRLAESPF

Binder	EC50 hGIP R [1] [pM]	EC50 hGLP-1 R [2] [pM]	EC50 hGLUC R [3] [pM]
B1	20.2	23.5	530
B2	23.4	11.4	79.7
B3	25.5	9.7	55.2
B4	9	5.5	445
B5	12.9	6.2	8470
B6	48.2	7	114
